This data set concerns the target T1, IRS727 peptide substrate.
T1 chain: KKKLPATGDYMNMSPVGD

B1: insulin receptor protein tyrosine kinase (IRK), activated recombinant (protein)
chain: VFPCSVYVPDEWEVSREKITLLRELGQGSFGMVYEGNARDIIKGEAETRVAVKTVNESASLRERIEFLNEASVMKGFTCHHVVRLLGVVSKGQPTLVVMELMAHGDLKSYLRSLRPEAENNPGRPPPTLQEMIQMAAEIADGMAYLNAKKFVHRDLAARNCMVAHDFTVKIGDFGMTRDIYETDYYRKGGKGLLPVRWMAPESLKDGVFTTSSDMWSFGVVLWEITSLAEQPYQGLSNEQVLKFVMDGGYLDQPDNCPERVTDLMRMCWQFNPKMRPTFLEIVNLLKDDLHPSFPEVSFFHSEENK
With B1, the “Km app of the peptide substrate” value is on record as “Km app (IRS727)=280 µM”.
